Assay results from patent US20150044226A1 (SBI BIOTECH, published 2015).

T1: human PLD4 (phospholipase D4) protein (UniProt Q96BZ4 1-506)
T1 chain: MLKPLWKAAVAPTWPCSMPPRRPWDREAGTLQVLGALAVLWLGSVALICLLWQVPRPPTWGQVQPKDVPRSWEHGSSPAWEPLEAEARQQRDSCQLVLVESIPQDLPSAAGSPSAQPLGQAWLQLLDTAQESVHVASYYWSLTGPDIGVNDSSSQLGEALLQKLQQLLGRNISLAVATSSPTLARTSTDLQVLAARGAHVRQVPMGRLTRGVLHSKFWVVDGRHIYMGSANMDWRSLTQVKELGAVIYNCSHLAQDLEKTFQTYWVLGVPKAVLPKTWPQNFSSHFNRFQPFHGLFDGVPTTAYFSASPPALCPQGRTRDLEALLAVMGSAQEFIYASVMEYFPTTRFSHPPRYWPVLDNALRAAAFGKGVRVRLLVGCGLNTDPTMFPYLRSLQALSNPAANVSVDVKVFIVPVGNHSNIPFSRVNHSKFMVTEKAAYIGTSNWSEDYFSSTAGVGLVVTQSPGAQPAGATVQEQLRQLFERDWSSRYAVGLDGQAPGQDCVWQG

T2: human PLD4 (phospholipase D4) protein (human, UniProt Q96BZ4 1-506)
T2 construct: Type II transmembrane protein, 506 a.a; also called hPLD4; HuPLD4
T2 sequence: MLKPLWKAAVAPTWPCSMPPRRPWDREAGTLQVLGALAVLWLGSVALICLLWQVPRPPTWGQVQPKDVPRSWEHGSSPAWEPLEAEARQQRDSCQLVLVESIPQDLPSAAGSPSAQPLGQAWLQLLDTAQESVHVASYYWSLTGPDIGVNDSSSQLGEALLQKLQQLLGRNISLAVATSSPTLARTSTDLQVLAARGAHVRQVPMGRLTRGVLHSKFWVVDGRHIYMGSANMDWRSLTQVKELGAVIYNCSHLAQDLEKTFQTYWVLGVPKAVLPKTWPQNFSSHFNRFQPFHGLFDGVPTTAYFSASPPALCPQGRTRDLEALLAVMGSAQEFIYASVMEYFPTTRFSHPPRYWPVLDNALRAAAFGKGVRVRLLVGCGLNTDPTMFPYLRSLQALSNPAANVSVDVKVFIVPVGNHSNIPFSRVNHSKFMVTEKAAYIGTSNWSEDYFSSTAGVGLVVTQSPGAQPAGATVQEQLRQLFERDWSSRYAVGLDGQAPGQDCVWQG

T3: rhesus monkey PLD4 (rhesus monkey, UniProt Q96BZ4 1-506 (human entry))
T3 construct: also called rhesus monkey PLD4 protein
T3 chain: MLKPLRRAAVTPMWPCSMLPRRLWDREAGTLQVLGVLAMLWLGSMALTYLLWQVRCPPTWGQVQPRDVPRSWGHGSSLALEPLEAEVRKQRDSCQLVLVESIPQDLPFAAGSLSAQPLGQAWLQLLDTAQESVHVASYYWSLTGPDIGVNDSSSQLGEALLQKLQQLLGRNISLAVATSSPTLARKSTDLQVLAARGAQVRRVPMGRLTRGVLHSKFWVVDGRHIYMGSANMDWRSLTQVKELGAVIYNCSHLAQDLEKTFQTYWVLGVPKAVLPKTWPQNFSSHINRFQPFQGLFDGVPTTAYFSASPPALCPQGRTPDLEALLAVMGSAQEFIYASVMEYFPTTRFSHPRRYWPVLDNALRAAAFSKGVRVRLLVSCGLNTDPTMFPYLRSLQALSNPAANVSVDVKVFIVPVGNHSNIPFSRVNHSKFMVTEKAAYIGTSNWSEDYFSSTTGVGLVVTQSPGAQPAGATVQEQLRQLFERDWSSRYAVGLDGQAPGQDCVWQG

T4: cynomolgus monkey PLD4 (cynomolgus monkey, UniProt Q96BZ4 1-506 (human entry))
T4 construct: also called cynomolgus monkey PLD4 protein; cyno PLD4
T4 chain: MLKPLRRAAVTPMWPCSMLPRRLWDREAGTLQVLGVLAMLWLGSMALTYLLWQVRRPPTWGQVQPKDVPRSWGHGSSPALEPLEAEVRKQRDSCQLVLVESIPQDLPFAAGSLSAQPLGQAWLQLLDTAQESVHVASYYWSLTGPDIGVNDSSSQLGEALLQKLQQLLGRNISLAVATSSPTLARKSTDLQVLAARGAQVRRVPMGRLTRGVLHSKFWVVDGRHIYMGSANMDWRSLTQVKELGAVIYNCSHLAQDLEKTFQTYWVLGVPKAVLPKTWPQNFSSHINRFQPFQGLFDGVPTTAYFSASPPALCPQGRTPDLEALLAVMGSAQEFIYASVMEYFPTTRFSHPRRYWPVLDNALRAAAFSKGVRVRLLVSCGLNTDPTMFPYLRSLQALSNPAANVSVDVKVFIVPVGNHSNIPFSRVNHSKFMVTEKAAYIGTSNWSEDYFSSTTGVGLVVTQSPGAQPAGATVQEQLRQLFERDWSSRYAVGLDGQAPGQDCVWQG

T5: human PLD3 (human, UniProt Q8IV08 1-490)
T5 construct: also called human PLB3 [sic]
T5 sequence: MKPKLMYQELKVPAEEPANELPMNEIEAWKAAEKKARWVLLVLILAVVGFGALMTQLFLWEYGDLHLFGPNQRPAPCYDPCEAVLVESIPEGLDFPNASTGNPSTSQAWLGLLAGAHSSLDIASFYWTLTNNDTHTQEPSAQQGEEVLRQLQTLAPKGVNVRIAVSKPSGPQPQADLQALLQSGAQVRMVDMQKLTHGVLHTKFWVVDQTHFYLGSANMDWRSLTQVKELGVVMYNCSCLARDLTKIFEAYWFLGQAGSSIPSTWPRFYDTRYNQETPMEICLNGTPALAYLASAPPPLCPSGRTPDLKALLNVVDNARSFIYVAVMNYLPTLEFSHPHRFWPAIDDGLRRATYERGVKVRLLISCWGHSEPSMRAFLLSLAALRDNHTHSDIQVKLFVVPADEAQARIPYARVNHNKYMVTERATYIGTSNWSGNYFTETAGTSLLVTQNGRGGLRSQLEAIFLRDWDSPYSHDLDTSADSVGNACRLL

T6: human PLD5 (human, UniProt Q8N7P1 92-536)
T6 sequence: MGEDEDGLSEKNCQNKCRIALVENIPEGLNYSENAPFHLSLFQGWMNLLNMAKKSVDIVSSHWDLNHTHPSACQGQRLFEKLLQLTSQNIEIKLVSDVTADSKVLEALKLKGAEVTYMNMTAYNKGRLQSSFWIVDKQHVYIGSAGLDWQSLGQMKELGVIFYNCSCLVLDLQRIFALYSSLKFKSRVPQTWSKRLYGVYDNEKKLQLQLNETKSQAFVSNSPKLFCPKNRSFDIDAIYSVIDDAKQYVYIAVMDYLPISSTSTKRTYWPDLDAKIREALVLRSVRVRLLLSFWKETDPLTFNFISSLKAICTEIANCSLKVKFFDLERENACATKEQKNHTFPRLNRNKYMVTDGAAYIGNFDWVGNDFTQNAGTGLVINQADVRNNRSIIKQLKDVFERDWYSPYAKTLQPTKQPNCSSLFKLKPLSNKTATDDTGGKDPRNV


Legend:
[1] = target: T1, human PLD4 (phospholipase D4) protein; test: binding to human PLD4-CT125 stable cells; apparent Kd
[2] = target: T2, human PLD4 (phospholipase D4) protein; test: FACS titration (0.001 to 30 µg/mL) of purified antibody on human PLD4-CT125 cells, positive cell frequency fitted with GraphPad Prism (FIG. 19)
Protocol: For binding ability of the purified antibody, human PLD4-CT125 expression stable cell strain was reacted to nearly 100% of the positive staining rate at low concentration to high concentration (0.001 μg/mL to 30 μg/mL) of purified PLD4 antibody concentration. The frequency of staining positive cell and the antibody were data-analyzed using Graph Pad Prism version 5 software, and the dissociation constant molar concentration (Kd value) was computed in nM unit.

rhesus monkey PLD4 [3] = target: T3, rhesus monkey PLD4; test: FACS, hybridoma culture supernatant on rhesus monkey PLD4-293T transient transfectants; non-binding implied (10C3 is not among the seven)
cynomolgus monkey PLD4 [4] = target: T4, cynomolgus monkey PLD4; test: FACS, hybridoma culture supernatant on cynomolgus monkey PLD4-CT125 cells; non-binding implied (10C3 is not among the seven)
cynomolgus monkey PLD4 [5] = target: T4, cynomolgus monkey PLD4; test: FACS, hybridoma culture supernatant on cynomolgus monkey PLD4-CT125 cells; non-binding implied (11D10 is not among the seven)
rhesus monkey PLD4 [6] = target: T3, rhesus monkey PLD4; test: FACS, hybridoma culture supernatant on rhesus monkey PLD4-293T transient transfectants; non-binding implied (11D10 is not among the seven)
rhesus monkey PLD4 [7] = target: T3, rhesus monkey PLD4; test: FACS, hybridoma culture supernatant on rhesus monkey PLD4-293T transient transfectants (FIG. 17)
cynomolgus monkey PLD4 [8] = target: T4, cynomolgus monkey PLD4; test: FACS on cynomolgus monkey PLD4-CT125 cells (FIG. 16)
cynomolgus monkey PLD4 [9] = target: T4, cynomolgus monkey PLD4; test: FACS, hybridoma culture supernatant on cynomolgus monkey PLD4-CT125 cells; non-binding implied (8C11 is not among the seven)
rhesus monkey PLD4 [10] = target: T3, rhesus monkey PLD4; test: FACS, hybridoma culture supernatant on rhesus monkey PLD4-293T transient transfectants; non-binding implied (8C11 is not among the seven)
human PLD3 = target: T5, human PLD3; test: FACS on 293T transfectants (FIG. 8)
human PLD5 = target: T6, human PLD5; test: FACS on 293T transfectants (FIG. 8)
cynomolgus monkey PLD4 [11] = target: T4, cynomolgus monkey PLD4; test: FACS on 293T transfectant (FIG. 9)

Binder	Kd [1] [nM]	Kd [2] [nM]	binding result (human PLD3)	binding result (human PLD5)	also measured
anti-PLD4 mouse 10C3 antibody (antibody, mouse IgG2a, V domains shown, Tested as hybridoma culture supernatant and as purified antibody) VH: EVQLVESGGDLVRPGGSLKLSCAASGFSFSSYGMSWFRQTPDKRLEWVATISSGGSYIYYPESVKGRFTISRDNARNILYLQMSSLKSEDTAMYYCVRLYGGRRGYGLDYWGQGTSVTVSS VL: EIVMTQAAFSNPVTLGTSASISCRSSKSLLHSDGITYLYWYLQKPGQSPQLLIYQMSNLASGVPDRFSSSGSGTDFTLRISRVEAEDVGVYYCAQNLELYTFGGGTKLEIKR	0.228	≤ 1			binding result (rhesus monkey PLD4 [3]): no binding; binding result (cynomolgus monkey PLD4 [4]): no binding
anti-PLD4 mouse 11D10 antibody (antibody, mouse IgG2b, V domains shown, Tested as hybridoma culture supernatant and as purified antibody) VH: EVQLVESGGDLVRPGGSLKLSCAASGFSFSSYGMSWFRQTPDKRLEWVATISSGGSYIYYPESVKGRFTISRDNARNILYLQMSSLKSEDTAMYYCVRLYGGRRGYGLDYWGQGTSVTVSS VL: EIVMTQAAFSNPVTLGTSASISCRSSKSLLHSDGITYLYWYLQKPGQSPQLLIYQMSNLASGVPDRFSSSGSGTDFTLRISRVEAEDVGVYYCAQNLELYTFGGGTKLEIKR	0.192	≤ 1			binding result (cynomolgus monkey PLD4 [5]): no binding; binding result (rhesus monkey PLD4 [6]): no binding
anti-PLD4 mouse 3B4 antibody (antibody, V domains shown, Tested as hybridoma culture supernatant and as protein A purified antibody) VH: EVQLQQSGTVLSRPGASVTMSCKASGDSFTTYWMHWVKQRPGQGLEWIGAIYPGNSETSYNQKFKGKAKLTAVTSASTAYMEFTSLTNEDSAVYYCTGGYSDFDYWGQGTTLTVSS VL: DILMTQSPSSMSVSLGDTVSITCHASQGIRSNIGWLQQKPGKSFKGLIFHGTNLEDGVPSRFSGRGSGADYSLTINSLESEDFADYYCVQYVQFPPTFGSGTKLEIRR	2.12	> 1			binding result (rhesus monkey PLD4 [7]): binds; binding result (cynomolgus monkey PLD4 [8]): binds
anti-PLD4 mouse 8C11 antibody (antibody, mouse IgG2b, V domains shown, Tested as hybridoma culture supernatant and as purified antibody) VH: QVQLQQSGAELVKPGASVKLSCKASGYTFTSYYLYWVRQRPGQGLEWIGLINPTNSDTIFNEKFKSKATLTVDKSSSTAYMQLSSLTSEDSAVYYCTREGGYGYGPFAYWGQGTLVTVSA VL: DVVMTQTPLSLPVSLGDQASISCTSSQTLVHSNGNTYLHWYLQKPGQSPKLLIYKVSNRFSGVPDRFSGSGSGTDFTLKISRVEAEDLGVYFCSHSTHVPFTFGSGTKLEIKR	0.085	≤ 1			binding result (cynomolgus monkey PLD4 [9]): no binding; binding result (rhesus monkey PLD4 [10]): no binding
anti-PLD4 mouse 11G9.6 antibody (antibody, V domains shown, Tested as hybridoma culture supernatant and as purified antibody; also called mp11G9.6; mp11G9.6 antibody) VH: QVQLQQPGAELVKPGTSVKMSCKASGYTFTSYWMHWVKQRPGQGLEWIGDIYPGSDSTNYNEKFKSKATLTVDTSSSTAYMQLSSLTSEDSAVYYCARGGWLDAMDYWGQGTSVTVSS VL: DIQMTQTTSSLSASLGDRVTISCRASQDISNYLNWYQQKPDGTVKLLIYYTSRLHSGVPSRFSGSGSGTDYSLTISNLEQEDIATYFCQQGNTLPWTFGGGTKLEIKR	0.058	≤ 1	no binding	no binding	
anti-PLD4 chimeric 11G9 antibody (antibody, human IgG1, kappa, V domains shown, Mouse 11G9.6 variable regions on human IgG1 heavy and human Ig kappa light constant regions; also called ch11G9.6; ch11G9.6 antibody) VH: QVQLQQPGAELVKPGTSVKMSCKASGYTFTSYWMHWVKQRPGQGLEWIGDIYPGSDSTNYNEKFKSKATLTVDTSSSTAYMQLSSLTSEDSAVYYCARGGWLDAMDYWGQGTSVTVSS VL: DIQMTQTTSSLSASLGDRVTISCRASQDISNYLNWYQQKPDGTVKLLIYYTSRLHSGVPSRFSGSGSGTDYSLTISNLEQEDIATYFCQQGNTLPWTFGGGTKLEIKR			no binding	no binding	binding result (cynomolgus monkey PLD4 [11]): binds
